In one test the test system is PIN1-IRAK-M interaction. In words: GST-PIN1 pulldown of IRAK-M from DC2.4 cell extracts. It is filed as cell-based, C57BL/6. The following applies: 100 ng/ml, 1 h, DC2.4 extracts. The method, then:
(§1) Fig. 2 IL-33 induces IRAK-M phosphorylation and binding to PIN1. a GST PIN1 pulldown assay with DC2.4 cell extracts either non-treated or treated with IL-33 (100 ng/ml) or LPS (100ng/ml) for 1 h. […] The cells were washed with fresh medium and treated with 100 ng/ml IL-33 for the indicated times prior to IRAK-M immunoprecipitation. d DC2.4 cells stably expressing IRAK-M were treated with IL-33 and at the indicated time points were subjected to CO-IP using anti-PIN1 antibody and blotted for IRAK-M. e HEK293 cells were transfected with different IRAK-M constructs expressing the N’ terminal domain (aa1-220), the middle portion of the protein (aa220-440) or the C’ terminal domain (aa 440-630), and then treated with IL-33, followed by CO-IP for PIN1. f DC2.4 cells stably expressing IRAK-M were treated with IL-33 and subjected to GST or GST-PIN1 pull-down.
Glutathione-Sepharose 4B (Amersham) coupled with glutathione S-transferase (GST) or GST-PIN1 and washed with 150 mM NaCl, 20 mM Tris-HCl (pH 8), 1 mM MgCl2, and 0.1% NP-40 was mixed with 1 mg of total protein extract for 3 h at 4 °C. The beads were then washed extensively, and the protein was eluted with 20 mM reduced glutathione. The proteins were resolved by SDS-PAGE and visualized by Western analysis or autoradiography. […]

Another test has as its system IRAK-M. In words: IRAK-M phosphorylation in DC2.4 cells. It is filed as cell-based, C57BL/6. The conditions noted are these: DC2.4; IL-33 100 ng/ml, 1 h, γ-32P labeling. As for the experimental part:
as §1

For another test, the system named is CD3+ CD4+ T cells. Briefly: Lung CD3+ CD4+ T cells after IL-33 challenge. The test is classed as in vivo, mouse. The following applies: IL-33 intranasal, sorted lung T cells, n=3. The method, then: Lungs were digested using Kollagenase D and dispase and the dendritic cells populations (CD11c^+ CD205^+ CD11b^+) were determined by staining the cells using the following antibodies: PE anti mouse CD11c (catalog number 117307), APC anti mouse CD205 (catalog number 138205), FITC anti mouse CD11b (catalog number 101205). For co stimulatory protein expression, FITC anti mouse CD40 (catalog number 124607), FITC anti mouse CD80 (catalog number 104705), FITC anti mouse CD86 (catalog number 105005) were used. […] Cells were analyzed using LSRII flow cytometer and FlowJo software. […]
Supplementary Figure 6. […] ( b) The indicated lungs were digested and the CD3+ CD4+ cells were monitored and cell sorted using APC-CD3 and FITC-CD4 antibodies respectively, for further analysis. […] (c) Sorted CD3+ CD4+ cells from the indicated mice after PBS and IL-33 challenge were analyzed for IL-13 and IL-5 expression (n=3).
(d) Quantification of figure 6E; Dendritic cell CD11b+ expression in WT, Pin1KO and IRAK-M KO mice lungs, either treated with IL-33 or PBS as before. (e) WT and IRAK-M KO mice were either treated with IL-33 or PBS, the lungs were digested and the CD11c+ cells were analyzed for the expression of costimulatory proteins CD40, CD80 and CD86. […]

Test [1] has as its system mouse embryonic fibroblasts (MEFs). In words: IL-6 secretion by MEFs. It is filed as cell-based. The following applies: PIN1 KO MEFs, all IL-33 concentrations tested, 24 h. As for the experimental part: Fig. 1 PIN1 is required for IL-33 to induces TH2 polarization and allergic inflammation. a 5 and15 min after IL-33 treatment of DC2.4 cells, cells were extracted and PIN1 activity was measured as previously described. Inset: PIN1 was immune precipitated and immune blotted for PIN1 or Ser71 phosphorylation as indicated. b WT and PIN1 KO MEF’s were treated with different concentrations of IL-33 for 24 h and the medium was measured for IL-6 secretion. c WT and PIN1 KO mice were treated with 200 ng/mice/day for 4 consecutive days and the BALF was examined for IL-4, 5, 6 and 13 by ELISA. d H&E staining representative of lungs from WT and PIN1 KO mice treated with IL-33 (n = 4). Scale bar = 50 µm. e Total cell number in the BALF of WT and PIN1 KO mice was measured using HEMAVET multispecies hematology analyzer. f Eosinophil cell number in the BALF of WT and PIN1 KO mice was measured using HEMAVET multispecies hematology analyzer. g Representative H&E staining of lung sections from WT and PIN1 KO mice after OVA-induced allergic asthma (n = 4). Scale bar = 50 µm. h IL-4, -5, -13 and IL-33 levels in the BALF of WT and PIN1 KO mice after OVA-induced allergic asthma. […] The data were analyzed by a Student’s two-tailed t test unless stated otherwise, and the values are reported as mean ± standard errors of the means (SEM). *- statistical significance (P < 0.05), **- significance (P < 0.01)

B1: IL-33: Recombinant mouse IL-33 purchased from BioLegend (protein, UniProt Q8BVZ5 1-266, looked up)
Interleukin-33: MRPRMKYSNSKISPAKFSSTAGEALVPPCKIRRSQQKTKEFCHVYCMRLRSGLTIRKETSYFRKEPTKRYSLKSGTKHEENFSAYPRDSRKRSLLGSIQAFAASVDTLSIQGTSLLTQSPASLSTYNDQSVSFVLENGCYVINVDDSGKDQEQDQVLLRYYESPCPASQSGDGVDGKKLMVNMSPIKDTDIWLHANDKDYSVELQRGDVSPPEQAFFVLHKKSSDFVSFECKNLPGTYIGVKDNQLALVEEKDESCNNIMFKLSKI
As for B1, in the test with PIN1-IRAK-M interaction, the PIN1-IRAK-M interaction entry is “specific interaction”. In addition, in the test with IRAK-M, the IRAK-M phosphorylation entry is on record as “IRAK-M was phosphorylated”. For the same molecule, in the test on CD3+ CD4+ T cells, the “Il13 and -5 expression in CD3+ CD4+ T cells” value was “markedly induced expression”. Also, in test [1], the “IL-6 secretion in response to IL-33” value was “abolished IL-6 secretion”.
